# In patent US20240368288A1 (HEMOGENYX PHARMACEUTICALS, published 2024):
# Several values for one entry are separate records, joined by “and”; a condition that tells them apart may be missing. Equal values may be shown once.
# B1: CD3xFLT3 bispecific antibody 118BA #3 (bispecific antibody, human IgG1, lambda)
# heavy: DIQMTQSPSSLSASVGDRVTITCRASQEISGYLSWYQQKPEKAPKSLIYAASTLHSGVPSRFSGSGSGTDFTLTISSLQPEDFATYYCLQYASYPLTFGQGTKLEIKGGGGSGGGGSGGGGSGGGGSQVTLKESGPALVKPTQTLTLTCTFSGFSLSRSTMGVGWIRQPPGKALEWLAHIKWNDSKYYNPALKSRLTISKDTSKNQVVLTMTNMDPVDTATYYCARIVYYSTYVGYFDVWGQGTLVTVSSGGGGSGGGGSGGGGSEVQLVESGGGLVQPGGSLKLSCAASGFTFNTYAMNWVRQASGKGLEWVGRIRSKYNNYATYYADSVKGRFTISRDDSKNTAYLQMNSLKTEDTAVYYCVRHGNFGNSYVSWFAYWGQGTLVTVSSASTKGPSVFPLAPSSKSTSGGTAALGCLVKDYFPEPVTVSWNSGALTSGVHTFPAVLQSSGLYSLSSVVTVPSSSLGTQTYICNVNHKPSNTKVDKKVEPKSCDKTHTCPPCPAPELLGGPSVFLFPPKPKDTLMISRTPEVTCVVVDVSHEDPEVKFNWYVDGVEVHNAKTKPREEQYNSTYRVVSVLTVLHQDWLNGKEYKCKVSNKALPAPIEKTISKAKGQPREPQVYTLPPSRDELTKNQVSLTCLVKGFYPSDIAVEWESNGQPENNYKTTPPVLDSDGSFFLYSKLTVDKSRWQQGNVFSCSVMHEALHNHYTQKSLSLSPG
# light: QAVVTQEPSFSVSPGGTVTLTCGSSTGAVTTSNYANWVQQTPGQAFRGLIGGTNKRSSGVPDRFSGSLLGDKAALTITGAQADDESDYYCALWYSNLWVFGGGTKLTVLGGQPKAAPSVTLFPPSSEELQANKATLVCLISDFYPGAVTVAWKADSSPVKAGVETTTPSKQSNNKYAASSYLSLTPEQWKSHRSYSCQVTHEGSTVEKTVAPTECS
# notes: also called #3 WT
# Assays:
# [1] = molecular target: T1, human FLT3 (Fms Related Receptor Tyrosine Kinase 3) expressed on cells (human, UniProt P36888 27-993); test: cell-based or functional assay
# T1 sequence (looked up): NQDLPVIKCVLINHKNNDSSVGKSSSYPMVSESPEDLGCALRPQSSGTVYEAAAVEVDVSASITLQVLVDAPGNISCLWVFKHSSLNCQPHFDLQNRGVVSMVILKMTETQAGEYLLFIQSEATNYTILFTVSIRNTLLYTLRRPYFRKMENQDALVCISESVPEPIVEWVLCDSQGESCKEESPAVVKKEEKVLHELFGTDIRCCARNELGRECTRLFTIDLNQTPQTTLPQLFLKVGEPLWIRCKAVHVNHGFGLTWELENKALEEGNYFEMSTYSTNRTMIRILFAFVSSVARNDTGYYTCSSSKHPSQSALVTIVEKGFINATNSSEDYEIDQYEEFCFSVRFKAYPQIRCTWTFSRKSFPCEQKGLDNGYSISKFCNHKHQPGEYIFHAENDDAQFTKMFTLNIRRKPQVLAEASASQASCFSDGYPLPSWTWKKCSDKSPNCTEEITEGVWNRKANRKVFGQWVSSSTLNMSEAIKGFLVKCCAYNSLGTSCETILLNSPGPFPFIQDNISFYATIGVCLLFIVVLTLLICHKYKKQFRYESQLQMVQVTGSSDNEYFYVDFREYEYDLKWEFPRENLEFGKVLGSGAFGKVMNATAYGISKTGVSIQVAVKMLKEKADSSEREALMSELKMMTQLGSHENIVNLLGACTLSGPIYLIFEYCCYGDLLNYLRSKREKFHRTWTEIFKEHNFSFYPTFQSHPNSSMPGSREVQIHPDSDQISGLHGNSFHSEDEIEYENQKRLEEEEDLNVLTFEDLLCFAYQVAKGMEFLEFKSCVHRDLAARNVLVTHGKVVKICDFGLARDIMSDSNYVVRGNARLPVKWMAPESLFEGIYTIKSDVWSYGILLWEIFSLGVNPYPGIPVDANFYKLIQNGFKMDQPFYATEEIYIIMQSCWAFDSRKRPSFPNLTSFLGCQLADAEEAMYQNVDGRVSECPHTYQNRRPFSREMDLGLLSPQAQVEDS
# [2] = molecular target: T1, human FLT3 (Fms Related Receptor …); test: flow cytometry on FLT3+ REH cells
# Description: (§1) Cells were washed five times with flow buffer and stained with anti-human IgG lambda antibody conjugated to FITC (Southern Biotech 2070-02). Cells were stained with 7-AAD (7-AAD Viability Staining Solution, Biolegend 420404) followed by flow cytometry analysis.
# [3] = molecular target: T2, human CD3 on the surface of T cells / Jurkat cells (human, UniProt P07766 23-207; P09693 23-182; P04234 22-171); test: flow cytometry on CD3+ Jurkat cells
# T2 construct: whole, on cells
# T2 sequence (P07766 23-207, chain 1 of 3): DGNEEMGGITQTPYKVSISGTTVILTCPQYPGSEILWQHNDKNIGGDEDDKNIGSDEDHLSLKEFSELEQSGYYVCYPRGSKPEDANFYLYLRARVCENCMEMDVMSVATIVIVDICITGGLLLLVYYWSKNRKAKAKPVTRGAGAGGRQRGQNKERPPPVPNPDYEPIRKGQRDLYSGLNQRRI
# T2 sequence (P09693 23-182, chain 2 of 3): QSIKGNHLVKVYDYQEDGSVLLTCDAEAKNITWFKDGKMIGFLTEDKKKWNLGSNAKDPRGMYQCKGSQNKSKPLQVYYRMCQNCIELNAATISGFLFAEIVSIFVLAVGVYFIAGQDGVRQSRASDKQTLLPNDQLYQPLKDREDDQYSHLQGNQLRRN
# T2 sequence (P04234 22-171, chain 3 of 3): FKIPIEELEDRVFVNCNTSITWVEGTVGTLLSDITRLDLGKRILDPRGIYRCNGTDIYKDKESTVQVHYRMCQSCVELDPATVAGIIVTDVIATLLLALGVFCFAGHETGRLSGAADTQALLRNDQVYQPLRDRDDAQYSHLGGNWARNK
# Description: as §1
# [4] = molecular target: T1, human FLT3 (Fms Related Receptor …); test: flow cytometry on FLT3+ HL-60 cells
# Description: as §1, with “analysis. […] Binding of bispecific antibody to cells should directly correlate with FLT3 expression.” for “analysis.”
# [5] = molecular target: T1, human FLT3 (Fms Related Receptor …); test: flow cytometry on FLT3+ THP-1 cells
# Description: as §1, with “analysis. […] Binding of bispecific antibody to cells should directly correlate with FLT3 expression.” for “analysis.”
# [6] = molecular target: T2, human CD3 on the surface of T cells / …; test: flow cytometry on CD3+ human T cells
# Description: as §1
# [7] = molecular target: T1, human FLT3 (Fms Related Receptor …); test: flow cytometry on FLT3+ MV4-11 cells
# Description: as §1, with “analysis. […] Binding of bispecific antibody to cells should directly correlate with FLT3 expression.” for “analysis.”
# [8] = molecular target: T1, human FLT3 (Fms Related Receptor …); test: flow cytometry on FLT3+ NOMO-1 cells
# Description: as §1, with “analysis. […] Binding of bispecific antibody to cells should directly correlate with FLT3 expression.” for “analysis.”
# [9] = molecular target: T1, human FLT3 (Fms Related Receptor …); test: flow cytometry on FLT3+ MOLM-13 cells
# Description: as §1, with “analysis. […] Binding of bispecific antibody to cells should directly correlate with FLT3 expression.” for “analysis.”
# [10] = molecular target: T1, human FLT3 (Fms Related Receptor …); test: flow cytometry on FLT3+ OCI-AML cells
# Description: as §1, with “analysis. […] Binding of bispecific antibody to cells should directly correlate with FLT3 expression.” for “analysis.”
# [11] = molecular target: T2, human CD3 on the surface of T cells / …; test: flow cytometry on CD3+ primary T cells
# Description: as §1
# [12] = molecular target: T3, Recombinant Human CD3 epsilon Fc Chimera Protein (R&D, no. 9850-CD-050) (human, UniProt P07766 23-126); test: ELISA, plate coated with recombinant human CD3 epsilon Fc chimera
# T3 construct: Bought reagent; Fc part of the bought chimera not given
# T3 sequence (P07766 23-126, change not shown): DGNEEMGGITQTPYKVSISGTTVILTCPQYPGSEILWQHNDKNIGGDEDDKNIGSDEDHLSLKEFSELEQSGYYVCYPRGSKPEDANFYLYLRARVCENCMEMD
# Method: The plate was washed with wash buffer (PBS (Caisson Labs, no. PBL06)+0.05% Tween20 (ThermoFisher, no. 28320)) The plate was blocked with blocking buffer (PBS (Caisson Labs, no. PBL06)+1% (w/v) BSA (Rockland, no. BSA-50)+0.05% Tween20 (ThermoFisher, no 28320)) for two hours at room temperature (RT). Plate was washed twice with wash buffer. […] Plate was washed 4× with wash buffer. Plate was incubated with 100 μL per well of 1:200 goat anti-human lambda-HRP secondary antibody (SouthernBiotech, no. 2070-05) for one hour at RT. Plate was washed 4× with wash buffer. Plate was incubated with 100 μL per well of TMB Substrate (ThermoFisher Cat #34029) for 20 minutes protected from light. Stop solution (2N H₂SO₄) was added to each well. Absorbance of wells was recorded at 450 nm on an Envision plate reader (PerkinElmer). […] Variable slope (four parameters) curve was fit to the data and EC50 was used to compare binding affinities.
binder,measurement,setting,value
B1,EC50 of cytotoxicity against HL-60,[1],0.014 nM
same,EC50 of cytotoxicity against MOLM-13,[1],0.0157 nM
same,EC50 of cytotoxicity against MV4-11,[1],0.022 nM
same,EC50 of cytotoxicity against NOMO-1,[1],0.003 nM
same,EC50 of cytotoxicity against OCI-AML,[1],0.002 nM
same,EC50 of cytotoxicity against REH,[1],0.01 nM
same,EC50 of cytotoxicity against REH cells,[1],0.01 nM and 0.006 nM
same,EC50 of cytotoxicity against THP-1,[1],0.00025 nM
same,EC50,[2],0.5 nM and 0.87 nM and 0.6 nM
same,EC50,[3],4.18 nM
same,EC50,[4],1.02 nM
same,EC50,[5],5.74 nM
same,EC50,[6],13.8 nM
same,EC50,[7],6.33 nM
same,EC50,[8],6.75 nM
same,EC50,[9],0.4 nM
same,EC50,[10],1.86 nM
same,EC50,[11],14.2 nM
same,EC50,[12],0.011 µg/mL and 0.06 nM
